Test [1] has as its target T1, Human full length B7-H3 (human, UniProt Q5ZPR3 29-534).
T1 construct: On 3T12 fibroblasts expressing full length human B7-H3 or on NCI-H1650 cells; signal peptide residues 1-28 stated; also called huB7-H3; CD276
T1 sequence: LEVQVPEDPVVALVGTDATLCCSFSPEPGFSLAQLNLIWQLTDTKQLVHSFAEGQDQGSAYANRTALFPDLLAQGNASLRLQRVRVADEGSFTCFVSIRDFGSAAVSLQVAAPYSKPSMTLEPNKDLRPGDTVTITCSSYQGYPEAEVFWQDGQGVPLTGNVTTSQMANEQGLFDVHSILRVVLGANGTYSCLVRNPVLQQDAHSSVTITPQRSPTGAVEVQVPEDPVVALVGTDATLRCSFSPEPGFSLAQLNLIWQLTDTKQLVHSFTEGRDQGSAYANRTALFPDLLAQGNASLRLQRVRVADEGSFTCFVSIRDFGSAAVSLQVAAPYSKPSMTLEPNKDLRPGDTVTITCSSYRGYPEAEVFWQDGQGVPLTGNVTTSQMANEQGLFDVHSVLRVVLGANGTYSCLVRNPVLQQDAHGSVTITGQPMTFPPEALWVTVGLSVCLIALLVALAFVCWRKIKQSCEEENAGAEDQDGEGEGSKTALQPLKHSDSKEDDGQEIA
The test can be described thus: FACS, NCI-H1650 cells. How it is done:
To generate purified chimeric antibodies, expression vectors were transiently transfected into HEK293 6E suspension cell cultures in a ratio of 60% to 40% light to heavy chain construct. 1 mg/ml of polyethylenimine (PEI) or 2.6 μL/mL of Expifectamine was used to transfect the cells. Cell supernatants were harvested after five days in shaking flasks, spun down to pellet cells, and filtered through 0.22 μm filters to separate IgG from culture contaminants. Antibody-containing supernatants were purified on Akta Pure using protein A mAb SelectSure. Columns were equilibrated in PBS pH 7.4, supernatants were then passed through the column and a wash was performed with PBS pH 7.4. IgG were eluted with 0.1 M acetic acid pH 3.5 and collected in several aliquots. Fractions containing IgG were pooled and dialyzed in PBS overnight at 4° C.
(§1) Cells were harvested from flasks when approximately 80% confluent using Gibco® Cell Dissociation Buffer. Cells were washed once in PBS/1% FBS (FACS buffer) then resuspended at 2.5×10⁶ cells/mL in FACS buffer. 100 μL of cells/well were added to a round bottom 96-well plate. 10 μL of a 10× concentration of mAb/ADC (final concentrations are indicated the figures). Wells were washed twice with FACS buffer and resuspended in 50 μL of secondary Ab (AlexaFluor 488) diluted in FACS buffer. The plate was incubated at 4° C. for one hour and washed twice with FACS buffer. Cells were resuspended in 100 μL of PBS/1% formaldehyde and analyzed on a Becton Dickinson LSRII flow cytometer. Data was analyzed using WinList flow cytometry analysis software.

Test [2] has as its target T1, Human full length B7-H3. The test can be described thus: FACS (Example 6 method). How it is done:
as §1
(§2) The parental chAb18 from which the variants were derived was also tested as a comparator.

For test [3], the target named is T2, Human B7-H3-ECD (His tag) (human, UniProt Q5ZPR3 29-461).
T2 construct: SPR analyte; also called huB7-H3; soluble ECD of human B7-H3
T2 sequence: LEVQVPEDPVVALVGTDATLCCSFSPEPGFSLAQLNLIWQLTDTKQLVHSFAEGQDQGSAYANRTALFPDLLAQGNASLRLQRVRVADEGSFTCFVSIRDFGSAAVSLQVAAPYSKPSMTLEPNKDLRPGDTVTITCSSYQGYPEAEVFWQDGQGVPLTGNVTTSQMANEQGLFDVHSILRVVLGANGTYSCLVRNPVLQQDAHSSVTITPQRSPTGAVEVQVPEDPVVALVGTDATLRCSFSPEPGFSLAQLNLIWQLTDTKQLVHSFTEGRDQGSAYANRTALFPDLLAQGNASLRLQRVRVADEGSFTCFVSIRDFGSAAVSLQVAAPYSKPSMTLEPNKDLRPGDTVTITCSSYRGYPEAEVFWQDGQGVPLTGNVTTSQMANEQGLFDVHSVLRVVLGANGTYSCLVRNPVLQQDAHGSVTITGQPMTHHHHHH
The test can be described thus: SPR Biacore, naked mAb.
Source text: Biacore T200 SPR instruments were used to measure the binding kinetics of human B7-H3 (analyte) binding to various mAbs (ligands). The assay format was Fc-based capture via immobilized anti-mouse (Fc) (Pierce 31170) or immobilized anti-human (Fc) (Pierce 31125). A standard amine coupling protocol was employed to immobilize the capture reagents via primary amines to the carboxy-methyl (CM) dextran surface of CM5 sensorchips (Biacore); capture antibodies were coupled to a level of approximately 5000RU. For binding kinetic measurements the assay buffer was HBS-EP+ (Biacore): 10 mM Hepes, pH7.4, 150 mM NaCl, 3 mM EDTA, 0.05% polysorbate 20. During the assay, all measurements were referenced against the capture surface alone. Each assay cycle consisted of the following steps: 1) Capture of ligand to approximately 50RU; 2) Analyte injection over both reference and test surface, 240 μL at 80 μL/min, after which the dissociation was monitored for 900 seconds at 80 μL/min; 3) Regeneration of capture surface with low pH glycine. […] Data were processed and fit to a 1:1 binding model using Biacore T200 Evaluation Software to determine the binding kinetic rate constants, kₐ (on-rate) and kd (off-rate), and the equilibrium dissociation constant (affinity, KD).
as §2

We go through 23 molecules from patent US20170355769A1 (AbbVie / Abbott, published 2017).

Residue numbers refer to the chain shown, from its start.

B1: chAb11 (antibody, IgG1, V domains shown)
VH: EVKLVESGGGLVQPGGSLRLSCATSGFTFTNYYMSWVRQPPGKALEWLGFIRNKANDYTTEYSASVKGRFTISRDNSQSILYLQMNTLRAEDSATYYCARESPGNPFAYWGQGTLVTVSA
VL: DIVMTQSPSSLTVTAGEKVTMTCKSSQSLLNSGTQKNFLTWYQQKPGQPPKLLIYWASTRESGVPDRFTGSGSGTDFTLTISSVQAEDLAVYFCQNDYIYPLTFGAGTKLELK
notes: chimeric, huIgG1/k
Regarding B1, the midpoint of the response with Human full length B7-H3 [1], the EC50, lay at 1120 pM.

B2: chAb2 (antibody, IgG1, V domains shown)
VH: QVQLQQPGAELVKPGASVKLSCKASGYTFTSYWMHWVKQRPGQGLEWIGMIHPDSGTTNYNEKFRSKATLTVDKSSSTAYMQLSSLTSEDSAVYYCAVYYGSTYWYFDVWGTGTTVTVSS
VL: DVVMTQTPLSLPVSLGDQAYISCRSSQSLVHINGNTYLHWYRQKPGQSPKLLIYKVSNRFSGVPDRFSGSGSGTDFTLKISRVEAEDLGVYFCSQSTHFPFTFGSGTKLEIK
notes: chimeric, huIgG1/k
B2 showed an EC50 with Human full length B7-H3 [1] of 100 pM.

B3: huAb18v10-CZ (antibody, V domains shown)
VH: EVQLVQSGAEVKKPGSSVKVSCKASGYSFTSYTIHWVRQAPGQGLEWMGYINPNSRNTDYAQKFQGRVTLTADKSTSTAYMELSSLRSEDTAVYYCARYSGSTPYWYFDVWGQGTTVTVSS
VL: DIQLTQSPSFLSASVGDRVTITCRASSSVSYMNWYQQKPGKAPKPWIYATSNLASGVPSRFSVSGSGTEHTLTISSLQPEDFATYYCQQWSSNPLTFGQGTKLEIK
modifications: synthon CZ on reduced interchain Cys
notes: ADC, DAR 2.7
Turning to B3, a half-maximal response with Human full length B7-H3 [2] (EC50) required 1190 pM.

B4: huAb18v6 (antibody, V domains shown)
VH: B3 VH
VL: EIVLTQSPDFQSVTPKEKVTITCRASSSVSYMNWYQQKPDQSPKLLIKATSNLASGVPSRFSGSGSGTDFTLTINSLEAEDAATYYCQQWSSNPLTFGQGTKLEIK
notes: humanized IgG
B4 registered a Kd in test [3] of 200 pM.

B5: huAb18v6-CZ (antibody, V domains shown)
VH: B3 VH
VL: B4 VL
modifications: synthon CZ on reduced interchain Cys
notes: ADC, DAR 3.4
As for B5, the EC50 with Human full length B7-H3 [2] is 2090 pM.

B6: huAb18v10 (antibody, V domains shown)
VH: B3 VH
VL: B3 VL
notes: humanized IgG
On to B6, for which the Kd in test [3] came to 250 pM. In other words, the sub-nanomolar range.

B7: huAb18v3 (antibody, V domains shown)
VH: B3 VH with M48I, A61N, Q65K, G66D, V68T, K74R
VL: B3 VL with A42S, G65V
notes: humanized IgG
For B7, the affinity in test [3], expressed as Kd, was 230 pM. The Kd values of the last two molecules are within 1.5-fold of each other.

B8: huAb18v8 (antibody, V domains shown)
VH: B3 VH with M48I, A61N, Q65K, G66D, V68T, K74R
VL: B3 VL
notes: humanized IgG
Molecule B8 had a Kd in test [3] of 250 pM.

B9: huAb18v5 (antibody, V domains shown)
VH: B3 VH with A61N, Q65K, G66D, L70I
VL: B4 VL
notes: humanized IgG
For B9, the equilibrium dissociation constant (Kd) in test [3] was 230 pM.

B10: huAb18v5-CZ (antibody, V domains shown)
VH: B3 VH with A61N, Q65K, G66D, L70I
VL: B4 VL
modifications: synthon CZ on reduced interchain Cys
notes: ADC, DAR 3.4
Molecule B10 came in with an EC50 with Human full length B7-H3 [2] of 2910 pM. That is a single-digit nanomolar value.

B11: huAb18v9 (antibody, V domains shown)
VH: B3 VH with M48I, A61N, Q65K, G66D, V68T, K74R
VL: B4 VL with L45P, L46W, K48Y, G63V, G65V, F70H
notes: humanized IgG
Regarding B11, in test [3], binding was put at a Kd of 380 pM.

B12: huAb18v8-CZ (antibody, V domains shown)
VH: B3 VH with M48I, A61N, Q65K, G66D, V68T, K74R
VL: B3 VL
modifications: synthon CZ on reduced interchain Cys
notes: ADC, DAR 2.6
On to B12, for which it took 1980 pM to reach a half-maximal effect with Human full length B7-H3 [2] (EC50).

B13: huAb18v1-CZ (antibody, V domains shown)
VH: B3 VH with A61N, Q65K, G66D, L70I
VL: B3 VL with P45L, W46L, V63G, H70F
modifications: synthon CZ on reduced interchain Cys
notes: ADC, DAR 2.6
With B13, in the test with Human full length B7-H3 [2], the EC50 stood at 1270 pM.

B14: huAb18v4-CZ (antibody, V domains shown)
VH: B3 VH
VL: B3 VL with A42S, G65V
modifications: synthon CZ on reduced interchain Cys
notes: ADC, DAR 2.5
In the case of B14, the EC50 in the test with Human full length B7-H3 [2] worked out at 900 pM. The EC50 values of the last two molecules are within 1.5-fold of each other.

B15: huAb18v2-CZ (antibody, V domains shown)
VH: B3 VH
VL: B3 VL with P45L, W46L, V63G, H70F
modifications: synthon CZ on reduced interchain Cys
notes: ADC, DAR 1.8
B15 had an EC50 in the test with Human full length B7-H3 [2] of 2250 pM.

B16: huAb18v3-CZ (antibody, V domains shown)
VH: B3 VH with M48I, A61N, Q65K, G66D, V68T, K74R
VL: B3 VL with A42S, G65V
modifications: synthon CZ on reduced interchain Cys
notes: ADC, DAR 2.4
For B16, the EC50 in the test with Human full length B7-H3 [2] turned out to be 1270 pM.

B17: huAb18v1 (antibody, V domains shown)
VH: B3 VH with A61N, Q65K, G66D, L70I
VL: B3 VL with P45L, W46L, V63G, H70F
notes: humanized IgG
In the case of B17, the Kd in test [3] amounted to 520 pM.

B18: huAb18v4 (antibody, V domains shown)
VH: B3 VH
VL: B3 VL with A42S, G65V
notes: humanized IgG
Take B18: the dissociation constant (Kd) in test [3] was 570 pM.

B19: huAb18v9-CZ (antibody, V domains shown)
VH: B3 VH with M48I, A61N, Q65K, G66D, V68T, K74R
VL: B4 VL with L45P, L46W, K48Y, G63V, G65V, F70H
modifications: synthon CZ on reduced interchain Cys
notes: ADC, DAR 2.4
For the molecule B19, the EC50 in the test with Human full length B7-H3 [2] was found to be 1580 pM.

B20: huAb18v2 (antibody, V domains shown)
VH: B3 VH
VL: B3 VL with P45L, W46L, V63G, H70F
notes: humanized IgG
In test [3], B20 yielded a Kd of 690 pM.

B21: huAb18v7 (antibody, V domains shown)
VH: B3 VH
VL: B4 VL with L45P, L46W, K48Y, G63V, G65V, F70H
notes: humanized IgG
The molecule B21 registered a Kd in test [3] of 400 pM.

B22: huAb18v7-CZ (antibody, V domains shown)
VH: B3 VH
VL: B4 VL with L45P, L46W, K48Y, G63V, G65V, F70H
modifications: synthon CZ on reduced interchain Cys
notes: ADC, DAR 4.3
With B22, in the test with Human full length B7-H3 [2], the EC50 worked out at 1920 pM.

B23: chAb4 (antibody, IgG1, V domains shown)
VH: QVQLQQPGAELVKPGASVKLSCKASGYSFTSYWMHWVKQRPGQGLEWIGMIHPNSGSNNYNEKFKSKATLTVDKSSNTAYMQLSSLTSEDSAVYYCARRLGLHFDYWGQGTTLTVSS
VL: DIVMTQSQKFMSTPVGDRVSITCKASQNVGTAVAWYQQKPGQSPKLLIYSASNRYTGVPDRFTGSGSGTDFTLTISNMQSEDLADYFCQQYSSYPYTFGGGTKLEIK
notes: chimeric, huIgG1/k
B23 came in with an EC50 in the test with Human full length B7-H3 [1] of 560 pM.
